# B1: NPX267 (Hu26E10z7p7) (antibody, human IgG4 S228P, kappa, V domains shown)
# VH: QAQLVQSGAEVKKPGASVKVSCKASGYTFTSYNIHWVRQAPGQGLEWMGYIYPGDAVTNYNQKFKGRVTMTADTSTSTVYMELSSLRSEDTAVYYCARSGNYGNYEGFAYWGQGTLVTVSS
# VL: DIQMTQSPSSLSASVGDRVTITCKASQDTQSYLSWFQQKPGKAPKTLIYRANRLVDGVPSRFSGSGSGTDFTLTISSLQPEDFATYYCLQYDEFPYTFGGGTKVEIKR
# notes: For staining of tumor infiltrating NK cells an APC conjugate (NPX267-APC) was used; also called humanized version of 26E10
# Legend:
# [1] = target: T1, KIR3DL3 expressed on cells (human, UniProt Q8N743 26-410); assay: flow cytometry on primary human NK cells in whole blood, Donor KP63936, GeoMean of anti-human PE secondary; no unit in the table, unit taken from the axis Log [ug/ml]
# T1 construct: whole, on cells; One entry for KIR3DL3 on all the cell types; also called NK92MI cells
# T1 sequence (Q8N743 26-410): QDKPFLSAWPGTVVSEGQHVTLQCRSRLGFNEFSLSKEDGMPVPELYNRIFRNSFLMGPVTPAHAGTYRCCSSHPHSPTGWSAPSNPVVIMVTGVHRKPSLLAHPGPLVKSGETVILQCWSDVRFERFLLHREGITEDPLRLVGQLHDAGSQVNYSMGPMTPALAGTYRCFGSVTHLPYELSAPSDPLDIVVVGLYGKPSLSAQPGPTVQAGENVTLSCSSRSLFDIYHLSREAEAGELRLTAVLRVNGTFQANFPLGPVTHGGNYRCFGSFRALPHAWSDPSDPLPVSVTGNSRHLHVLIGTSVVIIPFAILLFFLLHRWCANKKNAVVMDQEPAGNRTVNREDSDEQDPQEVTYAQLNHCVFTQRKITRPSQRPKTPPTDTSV
# Description: (§1) For primary human NK cells, human whole blood cells were treated with NPX267 at concentrations ranging from […] to […] for 30 minutes (FIG. 3C). Red blood cells were lysed and cells were stained with a cocktail of anti-human CD3, Anti-human CD56 and anti-human IgG4 PE. Flow cytometric analysis of primary antibody binding was detected using an anti-human PE secondary antibody.
# [2] = target: T2, recombinant KIR3DL3 protein (human) (human, UniProt Q8N743 26-322, limits assumed); assay: SPR (Biacore), KIR3DL3 protein immobilized on a CM5 chip, NPX267 as analyte; KIR3DL3 immobilized on CM5 chip; NPX267 IgG4 as analyte
# T2 construct: also called human KIR3DL3; killer cell immunoglobulin like receptor, three Ig domains and long cytoplasmic tail 3
# T2 sequence (Q8N743 26-322 limits assumed): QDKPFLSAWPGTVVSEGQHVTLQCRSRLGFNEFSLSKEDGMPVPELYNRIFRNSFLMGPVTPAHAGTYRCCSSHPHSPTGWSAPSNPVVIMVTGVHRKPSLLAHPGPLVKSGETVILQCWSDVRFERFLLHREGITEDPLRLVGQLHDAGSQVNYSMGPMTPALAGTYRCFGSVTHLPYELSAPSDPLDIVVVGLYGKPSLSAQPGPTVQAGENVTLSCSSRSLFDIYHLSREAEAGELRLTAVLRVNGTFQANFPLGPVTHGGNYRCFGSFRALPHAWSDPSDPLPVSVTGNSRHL
# Description: (§2) The monovalent binding affinity of NPX267 to recombinant KIR3DL3 protein was determined by SPR using a Biacore instrument; KIR3DL3 protein was immobilized on a CM5 chip and NPX267 was run as the analyte. […] No off-target binding was found in a screen of greater than 5800 plasma membrane proteins.
# [3] = target: T1, KIR3DL3 expressed on cells; assay: flow cytometry on primary human NK cells in whole blood, Donor KP63901, GeoMean of anti-human PE secondary; no unit in the table, unit taken from the axis Log [ug/ml]
# Description: as §1
# [4] = target: T2, recombinant KIR3DL3 protein (human); assay: SPR (Biacore); column kd1 (1/s); the drawn table names KIR3DL3 as analyte and NPX267 as ligand, paragraph 256 says the reverse
# Description: as §2
# [5] = target: T1, KIR3DL3 expressed on cells; assay: flow cytometry on NK92MI cells, anti-human PE secondary, gMFI; no unit beside the number, unit taken from the axis log [ug/mL]
# Description: (§3) Flow cytometric analysis of primary antibody binding was detected using an anti-human PE secondary antibody. The mean and standard deviation of duplicate data points are shown. Data performed in duplicate was entered into GraphPad Prism software and the EC₅₀ was determined using a 4-parameter nonlinear regression equation.
# NK92 MI cells were treated with NPX267 at concentrations ranging from […] to 0.0005 mg/mL for 30 minutes (FIG. 3B). Flow cytometric analysis of primary antibody binding was detected using an anti-human PE secondary antibody. The mean and standard deviation of triplicate data points are shown.
# [6] = target: T2, recombinant KIR3DL3 protein (human); assay: SPR (Biacore); column ka1 (1/Ms); the drawn table names KIR3DL3 as analyte and NPX267 as ligand, paragraph 256 says the reverse
# Description: as §2
# [7] = target: T1, KIR3DL3 expressed on cells; assay: flow cytometry on 300.19-KIR3DL3 cells, anti-human PE secondary, gMFI
# Description: as §3
# [8] = target: T1, KIR3DL3 expressed on cells; assay: cell-based or functional assay
# [9] = target: T1, KIR3DL3 expressed on cells; assay: blocking assay by flow cytometry on 300.19-KIR3DL3 cells; blocked ligand: recombinant biotinylated HHLA2, detected by streptavidin-APC
# Description: Recombinant biotinylated HHLA2 at 5 mg/mL was added to the cells and incubated for 30 minutes. The cells were treated with 1:250 of APC-streptavidin for 30 minutes to detect recombinant biotinylated HHLA2 bound to cells. […] NPX267 blocked recombinant HHLA2-Fc from binding to its inhibitory receptor KIR3DL3 in a dose dependent manner.
# [10] = target: T1, KIR3DL3 expressed on cells; assay: flow cytometry on primary human NK cells in whole blood, Donor KP63935, GeoMean of anti-human PE secondary; no unit in the table, unit taken from the axis Log [ug/ml]
# Description: as §1
binder,measurement,setting,value
B1,EC50,[1],0.098 µg/mL
same,Kd,[2],0.679 nM
same,EC50,[3],0.0298 µg/mL
same,koff,[4],0.000398 s⁻¹
same,EC50,[5],0.131 µg/mL
same,kon,[6],587000 M⁻¹ s⁻¹
same,EC50,[7],0.0684 µg/mL
same,"target cell death (Annexin V), NK92MI effector cells against K562 cells engineered to express HHLA2",[8],2 fold
same,IC50 (read off the curve),[9],~0.05 µg/mL
same,EC50,[10],0.0294 µg/mL

# Source: US20250171533A1 (NEXTPOINT THERAPEUTICS, published 2025)
